Measured values from patent US12416034B2, “Recombinant production of steviol glycosides” (EVOLVA SA, priority 2011, dated 2025).

Key:
[1] = Denaturation temperature by differential scanning calorimetry (DSC); assay type: physicochemical; details: 6HIS-purified enzymes, 91D2e-b GST-purified
Method: To assess the thermal stability of EUGT11 and to compare it with the other UGTs in the steviol glycosylation pathway, denaturation temperatures of the proteins were determined using differential scanning calorimetry (DSC). Use of DSC thermograms to estimate denaturation temperatures, TD, is described, for example, by E. Freire in Methods in Molecular Biology 1995, Vol. 40 191-218. DSC was performed (using 6HIS-purified EUGT11, yielding an apparent TD of 39° C.; while when GST-purified 91D2e-b was used, the measured TD was 79° C. For reference, the measured TD when using 6HIS-purified UGT74G1, UGT76G1 and UGT85C2 was 86° C. in all cases. One of skill in the art will recognize that enzyme immobilization or addition of thermal protectants can be added to the reactions to improve stability of the protein. Non-limiting examples of thermal protectants include trehalose, glycerol, ammonium sulphate, betaine, trimethylamine oxide, and proteins.

[2] = In vitro transcribed and translated UGTs incubated with RebA and UDP-glucose, LC-MS; assay type: biochemical
Method: In vitro transcription and translation of these genes was performed, and the resulting UGTs incubated with RebA and UDP-glucose. Following incubation, the reactions were analyzed by LC-MS. […] See LC-MS chromatograms in FIG. 4. As shown in the left panel of FIG. 4, UGT91D2e produced a trace amount of RebD when RebA was used as the feedstock.
EUGT11 was produced by in vitro transcription and translation, and incubated with various substrates in the RebD pathway. Similar experiments were carried out using in vitro transcribed and translated UGT91D2e. […] Compounds 1-3 were identified solely by mass and expected retention time. The numbers shown in FIG. 3 are the average peak height of the indicated steviol glycoside obtained from a LC-MS chromatogram, and, although not quantitative, can be used to compare the activity of the two enzymes. […] Both enzymes were able to convert steviol 19-O-monoglucoside (SMG) to compound 1, with EUGT11 being about ten times more efficient than UGT91D2e at converting 19-SMG to compound 1.
Both enzymes were able to convert RebA to RebD. However, EUGT11 was approximately 30 times better at converting RebA to RebD. Overall, it appears that EUGT11 produces more product than UGT91D2e in all reactions (with similar time, concentrations, temperature, and purity of enzyme) except the conversion of rubusoside to stevioside.

B1: EUGT11: UDP glycosyl transferase from Oryza sativa (GenBank AC133334), SEQ ID NO:152 (protein, listed as Oryza sativa)
chain: MDSGYSSSYAAAAGMHVVICPWLAFGHLLPCLDLAQRLASRGHRVSFVSTPRNISRLPPVRPALAPLVAFVALPLPRVEGLPDGAESTNDVPHDRPDMVELHRRAFDGLAAPFSEFLGTACADWVIVDVFHHWAAAAALEHKVPCAMMLLGSAHMIASIADRRLERAETESPAAAGQGRPAAAPTFEVARMKLIRTKGSSGMSLAERFSLTLSRSSLVVGRSCVEFEPETVPLLSTLRGKPITFLGLMPPLHEGRREDGEDATVRWLDAQPAKSVVYVALGSEVPLGVEKVHELALGLELAGTRFLWALRKPTGVSDADLLPAGFEERTRGRGVVATRWVPQMSILAHAAVGAFLTHCGWNSTIEGLMFGHPLIMLPIFGDQGPNARLIEAKNAGLQVARNDGDGSFDREGVAAAIRAVAVEEESSKVFQAKAKKLQEIVADMACHERYIDGFIQQLRSYKD
denaturation temperature TD [1]: 39 °C
amount of RebD produced when RebA was used as the feedstock ([2]; LC-MS chromatograms, FIG. 4): significant amount
efficiency at converting RebA to RebD compared with UGT91D2e ([2]; in vitro transcribed and translated enzymes, preliminary quantification): approximately 30 times
